Data published in US11098085B2, “Use of a HIV derived accessory protein for the reactivation of latent HIV” (Janssen Sciences Ireland Unlimited Company, priority 2014, dated 2021).

Key:
[1] = test system: HIV LTR; test: HIV LTR transactivation by Tat C-terminal deletion mutants (triple plasmid transfection, Dual-Glo luciferase); format: cell-based; conditions: HEK293 cells, 24 h post transfection, full length Tat72 exon-1 set to 100%, mean (standard deviation)
Description: Activity is expressed in % with respect to the activity achieved by full length Tat72 exon-1 set to 100%. Shown data are mean values [n 4] with indicated (standard deviation).
Tat-mediated transactivation was determined by triple plasmid transfection of HEK293 cells with pEF-T, a Tat expression plasmid, LTR-FLuc, a HIV LTR-controlled firefly luciferase reporter plasmid and pEF1-RLuc, a EF1α promoter driven Renilla luciferase reporter plasmid. Luciferase reporter activities were assessed 24 h post transfection using the Dual-Glo luciferase assay [Promega]. The measured HIV LTR luciferase data were normalized by Renilla luciferase data retrieved from the pEF1-RLuc plasmid. LTR activity is expressed as percentage of wild type exon-1 Tat72 activity.

[2] = test system: MT4-LTR-GFP cells; test: Titration of tat protein variants on latent HIV LTR-GFP reporter cell line (flow cytometry); format: cell-based; parameters: unit not given here; conditions: overnight
Description: MT4-LTR-GFP cells were incubated overnight with different Tat variants at the indicated concentration [μg/ml]. LTR activation was determined by flow cytometry.

[3] = test system: latent HIV; test: Ex vivo activation of latent HIV from primary CD4+ T cells of HIV-infected individuals (gag RNA QPCR); format: cell-based, HIV-1; conditions: for % Activity (PHA): PHA set to 100%; for % Activity (PMA): PMA set to 100%
Description: Activation of latent HIV from primary CD4^+ T cells by overnight incubation with different Tat proteins. Indicated numbers represent HIV activation in percentage to reference compounds PMA and PHA set to 100%. The shown % increase compared to PMA/PHA is statistically significant (p<0.01).
CD4^+ T cells were isolated from 200 ml whole blood using CD4 microbeads (Miltenyi Biotec) according to manufacturer's protocol. Blood originates from HIV-infected individuals under long-term HAART with undetectable plasma virus. Ten to twenty replicates of cell pools plated at 1×10^6 CD4^+ T cells/well were incubated overnight with compounds or mock controls (DMSO/PBS). Total RNA was isolated from each replicate using the Magmax 96 Total RNA isolation kit (Ambion) following the manufacturer's protocol. Duplicate cDNA reactions were performed on each RNA replicate using SuperScript III First-Strand Synthesis kit (Invitrogen) according to the manufacturer's protocol. Quantitative real-time PCR (QPCR) was conducted on each cDNA applying gag-specific primers and the nucleic acid detection dye Sybr Green I [Invitrogen]. Standard curves were generated using cDNA synthesized from in vitro transcribed RNA. The detection limit of the QPCR assay was determined to be within 1-10 copies/reaction. Cycle threshold (ct) values 40 were excluded from the analysis. The Wilcoxon rank sum test was used to calculate the statistical significance of the relative HIV-1 gag RNA copy number between different conditions.

[4] = test system: HIV LTR; test: HIV LTR activation by T66 fusion proteins (triple plasmid transfection of HEK293 cells, Dual-Glo luciferase); format: cell-based
Description: Triple plasmid transfection of HEK293 cells with pEF-T (Tat expression plasmid), LTR-FLuc (HIV LTR-controlled firefly luciferase reporter plasmid) and pEF1-RLuc (EF1α promoter driven Renilla luciferase reporter plasmid). Luciferase reporter activities were assessed 24 h post transfection using the Dual-Glo luciferase assay [Promega]. The measured HIV LTR luciferase data were normalized by Renilla luciferase data collected from the co-transfected pEF1-RLuc signal. LTR activation is either expressed as fold increase over cell control or as percentage of T66 activity.

| Molecule | % Tat72 activity [1] | LTR activation ([2]; Tat 30 μg/ml) | LTR activation ([2]; Tat 40 μg/ml) | LTR activation ([2]; Tat 50 μg/ml) | LTR activation ([2]; Tat 60 μg/ml) | LTR activation ([2]; Tat 70 μg/ml) | LTR activation ([2]; Tat 80 μg/ml) | LTR activation ([2]; Tat 100 μg/ml) | % Activity (PHA) ([3]; Donor 1, overnight incubation) [%] | % Activity (PMA) ([3]; Donor 1, overnight incubation) [%] | % Activity (PHA) ([3]; Donor 3, overnight incubation) [%] | % Activity (PMA) ([3]; Donor 3, overnight incubation) [%] | % Activity (PHA) ([3]; Donor 5, overnight incubation) | % Activity (PHA) ([3]; Donor 4, overnight incubation) | other results |
| --- | --- | --- | --- | --- | --- | --- | --- | --- | --- | --- | --- | --- | --- | --- | --- |
| 1-57: first 57 N-terminal amino acids of wild-type tat, SEQ ID No 1; minimal reactivation domain (MEPVDPRLEPWKHPGSQPKTACTNCYCKKCCFHCQVCFMTKALGISYGRKKRRQRRR; Human immunodeficiency virus 1) [Tat 1-57] | 40.2 (±2.3) % | – | – | – | – | – | – | – | – | – | – | – | – | – | – |
| T60: first 60 N-terminal amino acids of wild-type tat, SEQ ID No 2 (MEPVDPRLEPWKHPGSQPKTACTNCYCKKCCFHCQVCFMTKALGISYGRKKRRQRRRAHQ; Human immunodeficiency virus 1) [Tat T60] | 77.2 (±10.8) % | 28.5 | 33.4 | 87.0 | 92.1 | 95.2 | 95.8 | 93.3 | 328 | 405 | 196 | 213 | ND/254% | – | – |
| T86: Tat protein T86; full length tat protein is 86-101 aa (protein, UniProt P04608 1-86, looked up) Protein Tat: MEPVDPRLEPWKHPGSQPKTACTNCYCKKCCFHCQVCFITKALGISYGRKKRRQRRRAHQNSQTHQASLSKQPTSQPRGDPTGPKE | – | – | – | – | – | – | – | – | – | – | – | – | ND/408% | ND/436% | – |
| T72: full length exon 1 Tat [1-72 aa], contains all domains essential for trans-activation (protein, UniProt P04608 1-72, looked up, fragment) MEPVDPRLEPWKHPGSQPKTACTNCYCKKCCFHCQVCFITKALGISYGRKKRRQRRRAHQNSQTHQASLSKQ | – | 18.6 | 47.2 | 60.4 | 76.3 | 88.8 | 93.8 | 93.7 | – | – | – | – | – | – | – |
| T66 (protein, Human immunodeficiency virus 1) MEPVDPRLEPWKHPGSQPKTACTNCYCKKCCFHCQVCFMTKALGISYGRKKRRQRRRAHQNSQTHQ | 92.2 (±12.7) % | 45.7 | 53.8 | 87.0 | 88.7 | 87.6 | 93.9 | 94.5 | 680 | 838 | 487 | 530 | ND/636% | ND/479% | % Activity (PHA) ([3]; Donor 2, overnight incubation): 986%; HIV activation ex vivo compared with reference compounds ([3]; patient-derived latently infected CD4 cells, versus PHA, PMA and SAHA): exceeded by far the reactivation achieved by reference compounds; RLUC ([4]; EF1α promoter driven Renilla luciferase (normalisation signal), HEK293, 24 h post transfection): 267; FLUC ([4]; HIV LTR-controlled firefly luciferase, HEK293, 24 h post transfection): 15437; FLUCnorm ([4]; firefly luciferase normalized by Renilla luciferase): 37049; Fold ([4]; fold increase over cell control): 26; % T66 ([4]; percentage of T66 activity): 100% |
